The target of data set [1] is ctMic60sol V455D/F461D (Chaetomium thermophilum). Kind of data set: ITC. On the technique in general: In ITC the heat of successive injections is recorded.
For data set [2], the target named is Chaetomium thermophilum Mic60 excluding the TM region (residues 208 to 691) (Chaetomium thermophilum). Description: native gel or EMSA.
Data set [3] has the same target. Kind of data set: native gel or EMSA. This is another data set of the same source. Background: A gel shift assay detects complexes by their altered migration in electrophoresis.
For data set [4], the target named is ctMic60sol L676D (Chaetomium thermophilum). Description: native gel or EMSA.
Data set [5] concerns the target ctMic60sol R525C (Chaetomium thermophilum). Description: native gel or EMSA.
The data set “crystal structure” deals with the molecule itself. Kind of data set: crystal structure.

Like-named read-outs stand apart in the source and are kept apart here.

“Chaetomium thermophilum Mic19 (natural protein)” yielded a fold reduction of affinity against ctMic60sol in data set [1] of 30 fold.

For the molecule “Chaetomium thermophilum Mic60 excluding the TM region (residues 208 to 691) (domain or fragment)”, the stoichiometry N was determined as 4 in data set [2] and 2 in data set [3].

The molecule ctMic60sol L676D (domain or fragment) registered a stoichiometry N in data set [4] of 2.

Consider ctMic60sol R525C (domain or fragment), for which the stoichiometry N in data set [5] was found to be 4.

B1: Mic60 coiled-coil domain from Lachancea thermotolerans (amino acids 207 to 382) (domain or fragment, UniProt C5E325 207-382, looked up)
chain: NEDIRTNVAESVAVQYGQASKDLHESFEIRAKSREVELTQQFLNEFNAFKAQLEKHSSEELASALKANEQALLAKQSNEVALLSMKQVEEFTKILSEKLDQERQGRLSKLEALNGSVQELAEAVDQVDTLVMKSEVLSQLSLLTTLLKNKLHAGDESSVKIDSELARLKTLCDILP
As to B1, the “stoichiometry N” value in “crystal structure” came out at 4.

By stoichiometry N is commonly meant a count of units in the complex or per binding partner.

The values above are taken from paper PMC9432830 (Science Advances, 2022).
